Measured values: patent publication US20030113325A1 (CHILDREN S MEDICAL CENTER, published 2003)
Values belong to the binder of their own block, whether it stands above or below them.

How the values were obtained:
AP = molecular target: T1, AP (UniProt P05187 23-511, limits assumed); assay: coimmunoprecipitation of GST or GST-NgR with AP or AP-OMgp
T1 construct: Control in the coimmunoprecipitation; also called alkaline phosphatase; AP alone
Excerpt: (§1) We next took advantage of AP-OMgp binding to identify cell surface OMgp-binding proteins by expression cloning (He & Tessier-Lavigne, 1997; Flanagan and Cheng, 2000; Fournier et al., 2001). Pools of a complementary DNA expression library from adult human brain, representing approximately 250,000 independent clones, were transfected into COS-7 cells and screened for the presence of cells that bound AP-OMgp. […] After screening several rounds of subpools, we isolated two cDNAs that encoded the OMgp-binding proteins. […] We next performed coimmunoprecipitation experiments by incubating GST or a GST-NgR fusion protein containing the entire extracellular domain of NgR (GST-NgR) with AP or AP-OMgp.

[1] = molecular target: T2, Nogo-66 receptor (NgR), full-length, expressed on transfected cells (human, UniProt Q9BZR6 27-447); assay: saturation analysis of AP-OMgp binding to N2A cells transfected with NgR cDNA, bound AP activity
T2 construct: whole, on cells; The species of the NgR on the CHO cells is not restated; also called Nogo receptor
T2 sequence (looked up): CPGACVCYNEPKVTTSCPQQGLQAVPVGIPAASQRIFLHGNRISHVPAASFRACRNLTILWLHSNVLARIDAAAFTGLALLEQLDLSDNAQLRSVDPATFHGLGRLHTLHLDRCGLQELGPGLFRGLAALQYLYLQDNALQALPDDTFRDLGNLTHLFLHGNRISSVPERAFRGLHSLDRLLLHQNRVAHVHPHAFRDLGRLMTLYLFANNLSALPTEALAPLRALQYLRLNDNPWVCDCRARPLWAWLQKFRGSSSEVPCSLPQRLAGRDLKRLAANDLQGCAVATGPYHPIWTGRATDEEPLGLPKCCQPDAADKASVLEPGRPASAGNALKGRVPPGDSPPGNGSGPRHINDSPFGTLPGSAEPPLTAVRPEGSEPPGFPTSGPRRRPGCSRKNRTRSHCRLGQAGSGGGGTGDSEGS
Excerpt: as §1
Cell surface binding and expression cloning were performed as described previously (He and Tessier-Lavigne, 1997). To detect AP-OMgp binding, cultures were washed with binding buffer (Hanks balanced salt solution containing 20 mM Hepes, pH 7.5, and 1 mg/ml bovine serum albumin (BSA)). The plates were then incubated with AP-OMgp-containing binding buffer for 75 min at room temperature. After extensive washing and heat inactivation, bound AP fusion proteins were detected by AP staining using NBT and BCIP as substrate. For saturation analysis, we disrupted cells and detected bound AP fusion proteins using […] as substrate.

T1 sequence (P05187 23-511 limits assumed): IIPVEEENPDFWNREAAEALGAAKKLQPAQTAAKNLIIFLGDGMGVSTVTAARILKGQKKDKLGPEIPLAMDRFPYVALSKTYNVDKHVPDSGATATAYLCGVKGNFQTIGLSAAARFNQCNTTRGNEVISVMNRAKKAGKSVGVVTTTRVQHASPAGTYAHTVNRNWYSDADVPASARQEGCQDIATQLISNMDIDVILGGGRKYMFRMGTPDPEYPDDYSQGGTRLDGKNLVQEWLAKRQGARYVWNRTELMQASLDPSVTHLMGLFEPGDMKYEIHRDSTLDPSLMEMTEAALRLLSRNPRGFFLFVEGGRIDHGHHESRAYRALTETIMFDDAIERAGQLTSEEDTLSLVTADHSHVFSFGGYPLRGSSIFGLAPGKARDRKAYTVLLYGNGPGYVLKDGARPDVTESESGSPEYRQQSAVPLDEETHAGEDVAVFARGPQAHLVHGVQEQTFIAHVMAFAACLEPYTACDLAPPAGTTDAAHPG

binding result (AP): no binding
B1: GST-NgR fusion protein containing the entire extracellular domain of NgR (receptor, UniProt Q9BZR6 27-447, looked up)
chain: T2 sequence (looked up)
notes: extracellular domain; not shown: glutathione S-transferase (GST) fusion partner

Kd [1]: 5 nM
B2: AP-OMgp fusion protein (ligand, mouse, UniProt Q63912 25-417, looked up)
chain: ICPLQCTCTERHRHVDCSGRNLTTLPPGLQENIIHLNLSYNHFTDLHNQLTPYTNLRTLDISNNRLESLPAQLPRSLWNMSAANNNIKLLDKSDTAYQWNLKYLDVSKNMLEKVVLIKNTLRSLEVLNLSSNKLWTVPTNMPSKLHIVDLSNNSLTQILPGTLINLTNLTHLYLHNNKFTFIPEQSFDQLLQLQEITLHNNRWSCDHKQNITYLLKWVMETKAHVIGTPCSKQVSSLKEQSMYPTPPGFTSSLFTMSEMQTVDTINSLSMVTQPKVTKTPKQYRGKETTFGVTLSKDTTFSSTDRAVVAYPEDTPTEMTNSHEAAAATLTIHLQDGMSSNASLTSATKSPPSPVTLSIARGMPNNFSEMPRQSTTLNLRREETTANGNTRPPS
notes: Secreted from COS-7 cells and purified on nickel-agarose; about 180 kDa; The order of the parts follows the name AP-OMgp; not shown: alkaline phosphatase (AP) reporter of expression vector AP-5 (Flanagan and Cheng, 2000)
